Source: the supplement of paper PMC10567573

B1: SEC22B (parent)
chain: AKQLFRKLNEQSPTRCTLEAGAMT

Variants of: B1
Test: protein stability index of a GFP-peptide fusion (GPS, HEK-293T) (PSI 1-6); higher = more stable
Settings: c terminus: a fixed tail appended
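Note: lentivirally expressed fusions sorted by FACS into six bins by GFP to DsRed ratio, PSI derived from sequencing read proportions per bin multiplied by bin number.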

| Variant | protein stability index |
| --- | --- |
| AKTLFRKLNEQSPTRCTLEAGAMT [Q3T] | 2.59 |
| AKMLFRKLNEQSPTRCTLEAGAMT [Q3M] | 1.94 |
| AKKLFRKLNEQSPTRCTLEAGAMT [Q3K] | 2.02 |
| AKYLFRKLNEQSPTRCTLEAGAMT [Q3Y] | 1.55 |
| AKALFRKLNEQSPTRCTLEAGAMT [Q3A] | 2.2 |
| AKWLFRKLNEQSPTRCTLEAGAMT [Q3W] | 2.53 |
| AKSLFRKLNEQSPTRCTLEAGAMT [Q3S] | 1.88 |
| AKILFRKLNEQSPTRCTLEAGAMT [Q3I] | 1.77 |
| AKVLFRKLNEQSPTRCTLEAGAMT [Q3V] | 2.11 |
| RKQLFRKLNEQSPTRCTLEAGAMT [A1R] | 2.23 |
| YKQLFRKLNEQSPTRCTLEAGAMT [A1Y] | 1.89 |
| NKQLFRKLNEQSPTRCTLEAGAMT [A1N] | 2.22 |
| TKQLFRKLNEQSPTRCTLEAGAMT [A1T] | 2.3 |
| GKQLFRKLNEQSPTRCTLEAGAMT [A1G] | 2.26 |
| QKQLFRKLNEQSPTRCTLEAGAMT [A1Q] | 2.44 |
| FKQLFRKLNEQSPTRCTLEAGAMT [A1F] | 2.18 |
| SKQLFRKLNEQSPTRCTLEAGAMT [A1S] | 2.46 |
| PKQLFRKLNEQSPTRCTLEAGAMT [A1P] | 2.52 |
| EKQLFRKLNEQSPTRCTLEAGAMT [A1E] | 3.12 |
| MKQLFRKLNEQSPTRCTLEAGAMT [A1M] | 1.6 |
| IKQLFRKLNEQSPTRCTLEAGAMT [A1I] | 1.5 |
| DKQLFRKLNEQSPTRCTLEAGAMT [A1D] | 2.98 |
| HKQLFRKLNEQSPTRCTLEAGAMT [A1H] | 2.23 |
| VKQLFRKLNEQSPTRCTLEAGAMT [A1V] | 2.16 |

| Variant | protein stability index |
| --- | --- |
| CKQLFRKLNEQSPTRCTLEAGAMT [A1C] | 2.09 |
| LKQLFRKLNEQSPTRCTLEAGAMT [A1L] | 2.07 |
| KKQLFRKLNEQSPTRCTLEAGAMT [A1K] | 2.77 |
| AKQLFIKLNEQSPTRCTLEAGAMT [R6I] | 1.67 |
| AKQLFPKLNEQSPTRCTLEAGAMT [R6P] | 2.51 |
| AKQLFNKLNEQSPTRCTLEAGAMT [R6N] | 2.05 |
| AKQLFKKLNEQSPTRCTLEAGAMT [R6K] | 2.07 |
| AKQLFMKLNEQSPTRCTLEAGAMT [R6M] | 1.75 |
| AKQLFDKLNEQSPTRCTLEAGAMT [R6D] | 2.67 |
| AKQLFTKLNEQSPTRCTLEAGAMT [R6T] | 2.27 |
| AKQLFWKLNEQSPTRCTLEAGAMT [R6W] | 2.12 |
| AKQLFEKLNEQSPTRCTLEAGAMT [R6E] | 2.46 |
| AKQLFAKLNEQSPTRCTLEAGAMT [R6A] | 2.14 |
| AKQLFGKLNEQSPTRCTLEAGAMT [R6G] | 2.36 |
| AKQLFFKLNEQSPTRCTLEAGAMT [R6F] | 1.49 |
| AKQLFQKLNEQSPTRCTLEAGAMT [R6Q] | 2.67 |
| AKQLFVKLNEQSPTRCTLEAGAMT [R6V] | 2.31 |
| AKQLFCKLNEQSPTRCTLEAGAMT [R6C] | 2.42 |
| AKQLFYKLNEQSPTRCTLEAGAMT [R6Y] | 2.15 |
| AKQLFSKLNEQSPTRCTLEAGAMT [R6S] | 2.53 |
| AKQLFHKLNEQSPTRCTLEAGAMT [R6H] | 2.46 |
| AKQLFLKLNEQSPTRCTLEAGAMT [R6L] | 2.99 |
| ARQLFRKLNEQSPTRCTLEAGAMT [K2R] | 2.76 |
| ASQLFRKLNEQSPTRCTLEAGAMT [K2S] | 2.4 |

| Variant | protein stability index |
| --- | --- |
| AVQLFRKLNEQSPTRCTLEAGAMT [K2V] | 1.54 |
| ACQLFRKLNEQSPTRCTLEAGAMT [K2C] | 1.7 |
| AHQLFRKLNEQSPTRCTLEAGAMT [K2H] | 1.94 |
| ALQLFRKLNEQSPTRCTLEAGAMT [K2L] | 2.1 |
| AYQLFRKLNEQSPTRCTLEAGAMT [K2Y] | 2.24 |
| APQLFRKLNEQSPTRCTLEAGAMT [K2P] | 2.57 |
| AQQLFRKLNEQSPTRCTLEAGAMT [K2Q] | 2 |
| AWQLFRKLNEQSPTRCTLEAGAMT [K2W] | 2.92 |
| AFQLFRKLNEQSPTRCTLEAGAMT [K2F] | 1.72 |
| AMQLFRKLNEQSPTRCTLEAGAMT [K2M] | 1.8 |
| AGQLFRKLNEQSPTRCTLEAGAMT [K2G] | 2.77 |
| ATQLFRKLNEQSPTRCTLEAGAMT [K2T] | 1.83 |
| ADQLFRKLNEQSPTRCTLEAGAMT [K2D] | 2.42 |
| AEQLFRKLNEQSPTRCTLEAGAMT [K2E] | 2.92 |
| ANQLFRKLNEQSPTRCTLEAGAMT [K2N] | 2.72 |
| AAQLFRKLNEQSPTRCTLEAGAMT [K2A] | 2.13 |
| AIQLFRKLNEQSPTRCTLEAGAMT [K2I] | 1.43 |
| AKQYFRKLNEQSPTRCTLEAGAMT [L4Y] | 2.32 |
| AKQTFRKLNEQSPTRCTLEAGAMT [L4T] | 3.27 |
| AKQNFRKLNEQSPTRCTLEAGAMT [L4N] | 2.75 |
| AKQCFRKLNEQSPTRCTLEAGAMT [L4C] | 2.77 |
| AKQRFRKLNEQSPTRCTLEAGAMT [L4R] | 2.96 |
| AKQKFRKLNEQSPTRCTLEAGAMT [L4K] | 2.89 |
| AKQPFRKLNEQSPTRCTLEAGAMT [L4P] | 3.07 |

| Variant | protein stability index |
| --- | --- |
| AKQQFRKLNEQSPTRCTLEAGAMT [L4Q] | 2.68 |
| AKQFFRKLNEQSPTRCTLEAGAMT [L4F] | 1.89 |
| AKQHFRKLNEQSPTRCTLEAGAMT [L4H] | 3.12 |
| AKQIFRKLNEQSPTRCTLEAGAMT [L4I] | 1.99 |
| AKQMFRKLNEQSPTRCTLEAGAMT [L4M] | 2.4 |
| AKQGFRKLNEQSPTRCTLEAGAMT [L4G] | 2.94 |
| AKQWFRKLNEQSPTRCTLEAGAMT [L4W] | 2.02 |
| AKQSFRKLNEQSPTRCTLEAGAMT [L4S] | 3.44 |
| AKQEFRKLNEQSPTRCTLEAGAMT [L4E] | 3.62 |
| AKQVFRKLNEQSPTRCTLEAGAMT [L4V] | 2.07 |
| AKQAFRKLNEQSPTRCTLEAGAMT [L4A] | 2.73 |
| AKQDFRKLNEQSPTRCTLEAGAMT [L4D] | 3.27 |
| AKQLFRILNEQSPTRCTLEAGAMT [K7I] | 1.81 |
| AKQLFRELNEQSPTRCTLEAGAMT [K7E] | 2.89 |
| AKQLFRHLNEQSPTRCTLEAGAMT [K7H] | 2.64 |
| AKQLFRFLNEQSPTRCTLEAGAMT [K7F] | 1.67 |
| AKQLFRDLNEQSPTRCTLEAGAMT [K7D] | 2.7 |
| AKQLFRLLNEQSPTRCTLEAGAMT [K7L] | 1.69 |
| AKQLFRGLNEQSPTRCTLEAGAMT [K7G] | 2.24 |
| AKQLFRMLNEQSPTRCTLEAGAMT [K7M] | 1.83 |
| AKQLFRALNEQSPTRCTLEAGAMT [K7A] | 1.97 |
| AKQLFRCLNEQSPTRCTLEAGAMT [K7C] | 2.82 |
